Consider one molecule from patent US8133978 (GlaxoSmithKline, dated 2012).

Test [1] concerns the target T1, Rhesus IL-18 (rhesus (rhesus/cynomolgus)).
T1 construct: also called Rhesus/Cynomolgus IL-18; rhesus/cynomolgus IL-18
The experiment in a line: SPR, Biacore 3000, antibody captured on Protein A, 25 C. The procedure:
(§1) Biacore™ kinetic analysis of the humanised 2C10 antibodies was carried out on a Biacore™ 3000 instrument using Protein A capture of the antibodies in HBS-EP buffer (Biacore™). Briefly, Protein A was immobilised on a CM5 chip by primary amine coupling, using manufacturers recommended protocol, to densities around 2000-4000 resonance units (RU's). Humanised antibody was then passed over the Protein A surface and captured to levels of around 200-500 RU's, after a period of stabilisation, IL-18 (human or Rhesus) was passed over the captured antibody surface at defined concentrations and binding sensorgrams were obtained. […] All curves were double referenced against a buffer injection instead of IL-18 and the data was fitted to the 1:1 binding model using the global fit parameters in BiaEval 4.1. Off-rate ranking experiments were set up using the same Protein A capture method, however, only a single concentration of IL-18 was used (10 nM). Whilst the data was fitted using the same binding model as the kinetic analysis, since only one concentration of analyte was used on the off-rate is reported, this value is useful for ranking rather than giving an exact kinetic measurement and was used as a way of selecting which antibodies would be further investigated.
(§2) Based upon these observations selected antibodies were investigated in greater detail for binding to human and Rhesus IL-18 at 37° C. The data shown in Table 4b for human IL-18 is the mean (and standard deviation) of six separate determinations.
A general note: Surface plasmon resonance follows binding to a sensor surface in real time, without labels.

In test [2] the target is T2, Human interleukin-18 (recombinant human IL-18) (human, UniProt Q14116 37-193).
T2 construct: also called hIL-18
T2 sequence: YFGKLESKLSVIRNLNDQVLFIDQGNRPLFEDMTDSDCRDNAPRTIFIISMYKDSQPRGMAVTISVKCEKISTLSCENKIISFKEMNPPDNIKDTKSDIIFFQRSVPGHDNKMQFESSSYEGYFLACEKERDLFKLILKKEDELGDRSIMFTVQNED
Nature of the test: SPR, Biacore 3000, antibody captured on Protein A, 37 C. The procedure:
as §1, §2

In test [3] the target is T1, Rhesus IL-18. Described as above. The procedure: as §1, §2
Test [4] addresses T2, Human interleukin-18 (recombinant human …). Nature of the test: SPR, Biacore T100, antibody captured on Protein A, 15 C.
For test [5] the target is unchanged. Nature of the test: SPR, Biacore T100, antibody captured on Protein A, 20 C. The procedure: (§3) The methodology was basically the same as for the method used in Example 4a above; Protein A was immobilised on a CM5 chip at densities of between 2000-6000 RU's by primary amine coupling. Runs were carried out in HBS-EP (Biacore™). The anti-IL-18 antibodies were captured to densities of between 100-500 RUs, human IL-18 was passed over this captured surface at concentrations between 16-0.0625 nM, with 0 nM concentration (i.e., a buffer only injection of captured antibody) used for double referencing. Regeneration after each injection of IL-18 was by mild acidic elution using two injections of 10 mM glycine, pH1.5. […] The binding curves obtained were analysed using the analysis software inherent to the T100 machine using the 1:1 model of binding. Runs were carried out at the temperatures indicated.
(§4) This experiment was carried out using the above method at various temperatures. […] Table 5 details the kinetic values used to create these figures.

Test [6] shares this target. Nature of the test: SPR, Biacore T100, antibody captured on Protein A, 25 C. How it is done:
as §3, §4

For test [7] the target is unchanged. Nature of the test: SPR, Biacore T100, antibody captured on Protein A, 32 C. The procedure: as §3, §4
For test [8] the target is unchanged. Nature of the test: SPR, Biacore T100, antibody captured on Protein A, 37 C. How it is done: as §3, §4
For test [9] the target is unchanged. The experiment in a line: ELISA, human IL-18 captured by 16D10, antibody titrated. The procedure: ELISA with all nine humanised variants was carried out at least 6 times using various batches of purified antibody preparation. FIGS. 4A-4C show representative data from one experiment which generated the EC50 value ranking illustrated in Table 7. Human IL-18 was immobilized on Nunc Maxisorp 96-well plates using 2.5 µg/ml of 16D10 (non-neutralising mouse monoclonal antibody) to capture 5 ng/ml of recombinant human IL-18. Anti-IL-18 humanised antibodies were added at various dilutions. Bound humanised antibodies were detected using anti-human IgG Fc specific peroxidase conjugate (Sigma A0170).

For test [10] the target is unchanged. Nature of the test: ELISA, antibody on plate, human IL-18 captured, detected by 16D10; 37 C, in serum. The procedure:
(§5) ELISA was carried out with the three Humanised H1 variants; H1L1, H1L2 and H1L3 to assess binding to human IL-18 at room temperature and at 37° C. in both human serum and in block solution (PBS 0.05% TWEEN with 1% BSA (w/v)). The Humanised antibody variants were immobilised on Nunc Maxisorp 96-well plates at 2.5 µg/ml. Capture of 5 ng/ml of recombinant human IL-18 was carried out either at room temperature or 37° C. in human serum or block solution. Anti-IL-18 mouse monoclonal antibody 16D10 was added. The bound mouse antibody was detected using anti-mouse kappa peroxidase conjugate (Serotec MCA 1291P). Representative EC50 values generated from the study data are illustrated in Table 9.
(In general: An ELISA detects its analyte on a solid surface through an enzyme-linked reagent.)

Test [11] shares this target. The experiment in a line: ELISA, antibody on plate, human IL-18 captured, detected by 16D10; 37 C, blocking buffer. How it is done: as §5
Test [12] shares this target. Nature of the test: ELISA, antibody on plate, human IL-18 captured, detected by 16D10; room temperature, blocking buffer. How it is done: as §5
Test [13] shares this target. The experiment in a line: ELISA, IL-18 bp-Fc coated at 0.5 ug/ml, human IL-18 added at 100 ng/ml, antibody titrated, detection anti-human kappa HRP, Abs 490 nm.
Test [14] shares this target. The experiment in a line: ELISA, antibody on plate, human IL-18 captured, detected by 16D10; room temperature, in serum; room temperature incubation, in presence of serum. The procedure:
as §5

B1: H1L2 humanised anti-IL-18 antibody (antibody, human IgG1, kappa, V domains shown)
VH: QVQLVQSGAEVKKPGASVKVSCKVSGEISTGYYFHWVRQAPGKGLEWMGRIDPEDDSTKYAERFKDRVTMTEDTSTDTAYMELSSLRSEDTAVYYCTTWRIYRDSSGRPFYVMDAWGQGTLVTVSS
VL: DIQMTQSPSSVSASVGDRVTITCLASEDIYTYLTWYQQKPGKAPKLLIYGANKLQDGVPSRFSGSGSGTDYTLTISSLQPEDFATYYCLQGSKFPLTFGQGTKLEIKR
notes: Human IgG1 / kappa
The term Kd denotes a measure of binding affinity in units of concentration. One may read the EC50 as the concentration giving half of the maximal effect. One may read the EC50 (read off the curve) as the concentration giving half of the maximal effect. With B1, the Kd came out at 0.108 nM in the test with Rhesus IL-18 [1]; 0.197 nM in [2]; 0.139 nM with Rhesus IL-18 [3]; 0.01 nM in test [4]; 0.0089 nM in test [5]; 0.0125 nM in test [6]. For the same molecule, the results for the equilibrium dissociation constant (Kd) in [7] and in test [8] were 0.0189 nM and 0.0223 nM, respectively. The EC50 is 11 ng/mL in test [9]; 9.79 ng/mL in [10]; 3.4 ng/mL in test [11]; 3.55 ng/mL in test [12]; 9.79 ng/mL in test [14]. In addition, the 50% effective concentration (EC50 (read off the curve)) in test [13] is about 40 ng/mL.
